Bridges are numbered along the chain shown (N, C = ends). Primed or numbered codes have the meaning given here. [ ]: non-standard residue; d: D form. Ygp(4) = Tyr with amino-capped PEG8 (O-(8x polyethylene glycol-amino)-tyrosine); Yn3(4) = Tyr with azide-capped PEG9 (O-(9x polyethylene glycol-azido)-tyrosine); Ygp = O-(8x polyethylene glycol-amino)-tyrosine (Tyr, amino-capped PEG8); Yn3 = O-(9x polyethylene glycol-azido)-tyrosine (Tyr, azide-capped PEG9); Ygp(3) = O-(PEG8-amino)-tyrosine; Yn3(3) = O-(PEG9-azido)-tyrosine; PEG4′ = 4x polyethylene glycol; PEG9′ = 9x polyethylene glycol; hSer = N[C@@H](CCO)C(=O)O; Nle = CCCC[C@H](N)C(=O)O
T1: IL-2 receptor βγ complex (human, UniProt P14784 27-551; P31785 23-369)
T1 sequence (looked up) 1: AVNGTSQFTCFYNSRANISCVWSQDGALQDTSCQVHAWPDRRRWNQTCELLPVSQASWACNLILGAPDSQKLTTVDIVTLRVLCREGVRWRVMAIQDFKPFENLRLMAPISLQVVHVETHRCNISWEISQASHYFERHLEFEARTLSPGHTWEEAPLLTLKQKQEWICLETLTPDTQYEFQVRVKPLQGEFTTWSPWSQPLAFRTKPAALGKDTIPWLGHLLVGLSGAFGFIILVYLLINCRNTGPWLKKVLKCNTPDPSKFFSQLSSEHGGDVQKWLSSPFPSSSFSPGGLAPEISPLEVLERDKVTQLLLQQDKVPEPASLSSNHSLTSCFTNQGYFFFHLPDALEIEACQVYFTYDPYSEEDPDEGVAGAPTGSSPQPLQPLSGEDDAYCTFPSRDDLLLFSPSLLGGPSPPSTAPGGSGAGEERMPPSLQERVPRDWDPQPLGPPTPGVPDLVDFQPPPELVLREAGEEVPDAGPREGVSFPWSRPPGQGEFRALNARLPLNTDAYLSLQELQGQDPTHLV
T1 sequence (looked up) 2: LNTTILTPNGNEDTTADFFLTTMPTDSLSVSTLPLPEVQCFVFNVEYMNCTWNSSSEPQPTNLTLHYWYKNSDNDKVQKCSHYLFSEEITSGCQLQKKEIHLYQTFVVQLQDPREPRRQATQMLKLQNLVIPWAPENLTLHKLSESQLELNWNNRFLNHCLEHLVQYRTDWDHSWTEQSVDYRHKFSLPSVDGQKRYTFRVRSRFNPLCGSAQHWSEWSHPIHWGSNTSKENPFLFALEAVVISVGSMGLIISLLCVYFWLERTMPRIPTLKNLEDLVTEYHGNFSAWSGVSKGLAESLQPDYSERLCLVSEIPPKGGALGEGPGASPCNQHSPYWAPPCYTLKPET

T2: recombinant human IL-2 receptor beta containing a His-tag and Avi-tag (human, UniProt P14784 27-239)
T2 construct: Bought; attached to the SAX2 biosensor; also called CD122; IL-2R β; not shown: His-tag and Avi-tag
T2 sequence (looked up): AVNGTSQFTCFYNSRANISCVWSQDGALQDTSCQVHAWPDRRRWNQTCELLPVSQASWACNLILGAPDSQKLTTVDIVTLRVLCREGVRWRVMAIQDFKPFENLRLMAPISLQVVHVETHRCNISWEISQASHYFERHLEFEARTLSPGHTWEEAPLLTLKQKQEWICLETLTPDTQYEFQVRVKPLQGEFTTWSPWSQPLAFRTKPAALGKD

T3: Avi-tag Fc with human IL-2R beta and IL-2R gamma attached (Acrobiosystems ACRB-ILG-H82F3-25UG) (human, UniProt P14784 27-239; P31785 23-262)
T3 construct: Bought; attached to the SAX2 biosensor; also called CD122 CD132; IL-2R βγ; not shown: Fc and Avi-tag
T3 sequence (looked up) 1: T2 sequence (looked up)
T3 sequence (looked up) 2: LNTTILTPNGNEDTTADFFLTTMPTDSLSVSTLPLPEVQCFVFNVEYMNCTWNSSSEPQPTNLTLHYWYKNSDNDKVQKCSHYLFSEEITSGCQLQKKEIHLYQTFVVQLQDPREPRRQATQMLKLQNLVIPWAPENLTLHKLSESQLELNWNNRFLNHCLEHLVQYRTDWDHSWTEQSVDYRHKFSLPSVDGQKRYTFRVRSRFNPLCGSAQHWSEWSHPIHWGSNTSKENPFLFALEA

B1: CMP-304 (ligand)
chain: PLGLAGAPTSSSTKKTQLQLEHLLLDLQEILNGINNYKNPKLTR[Nle]L[hSer][Yn3(4)]KF[Ygp(4)][Nle]PKKATELKHLQCLEEELKPLEEVL[hSer]LAQSKNFHLRPRDLISNINVIVLELKGSETTF[hSer]CEYADETATIVEFLNRWITFSQSIISTLT
modifications: bridge N-29; not fully specified (N-terminus, bridges); ends not checked
B2: CMP-168 (ligand)
chain: APTSSSTKKTQLQLEHLLLDLQEILNGINNYKNPKLTR[Nle]L[hSer][Yn3(4)]KF[Ygp(4)][Nle]PKKATELKHLQCLEEELKPLEEVL[hSer]LAQSKNFHLRPRDLISNINVIVLELKGSETTF[hSer]CEYADETATIVEFLNRWITFSQSIISTLT
modifications: bridge 9-23; not fully specified (bridges); ends not checked; also: sequence of the cleavable bridging peptide not given here
B3: CMP-138 (ligand)
chain: [PEG4′]SGGPGPAGMKGLPGS[PEG4′]APTSSSTKKTQLQLEHLLLDLQ[Nle]ILNGIENYKNPKLTR[Nle]L[hSer][Yn3(3)]KF[Ygp(3)][Nle]PKKATELKHLQCLEEELKPLEEVL[hSer]LAQSKNFHLRPRDLISNINVIVLELKGSETTF[hSer]CEYADETATIVEFLNRWITFSQSIISTLT
modifications: bridge (positions not given here); not fully specified (bridges); numbers in words are those of the source; also: Cys58-Cys105 disulfide expected from oxidative folding
B4: CMP-300 (ligand)
chain: GPLGLAG[PEG4′]APTSSSTKKTQLQLEHLLLDLQEILNGINNYKNPKLTR[Nle]L[hSer][Yn3(4)]KF[Ygp(4)][Nle]PKKATELKHLQCLEEELKPLEEVL[hSer]LAQSKNFHLRPRDLISNINVIVLELKGSETTF[hSer]CEYADETATIVEFLNRWITFSQSIISTLT
modifications: lactam N-31; ends not checked
B5: CMP-136 (ligand)
chain: [PEG9′]PLGLAG[PEG9′]APTSSSTKKTQLQLEHLLLDLQ[Nle]ILNGIENYKNPKLTR[Nle]L[hSer][Yn3]KF[Ygp][Nle]PKKATELKHLQCLEEELKPLEEVL[hSer]LAQSKNFHLRPRDLISNINVIVLELKGSETTF[hSer]CEYADETATIVEFLNRWITFSQSIISTLT
modifications: bridge N-37; not fully specified (bridges)
B6: CMP-305, MMP2 cleaved molecule (ligand)
chain: APTSSSTKKTQLQLEHLLLDLQKILNGINNYKNPKLTR[Nle]L[hSer][Yn3]KF[Ygp][Nle]PKKATELKHLQCLEEELKPLEEVL[hSer]LAQSKNFHLRPRDLISNINVIVLELKGSETTF[hSer]CEYADETATIVEFLNRWITFSQSIISTLT
modifications: also: m29 after MMP2 cleavage: Glu15-Lys23 cleavable peptide bridge cut, remnants on Glu15 and Lys23 not given here
B7: CMP-302 (ligand)
chain: GPLGLAGAPTSSSTKKTQLQLEHLLLDLQEILNGINNYKNPKLTR[Nle]L[hSer][Yn3(4)]KF[Ygp(4)][Nle]PKKATELKHLQCLEEELKPLEEVL[hSer]LAQSKNFHLRPRDLISNINVIVLELKGSETTF[hSer]CEYADETATIVEFLNRWITFSQSIISTLT
modifications: lactam N-30; ends not checked
B8: CMP-305 (ligand)
chain: APTSSSTKKTQLQLEHLLLDLQKILNGINNYKNPKLTR[Nle]L[hSer][Yn3]KF[Ygp][Nle]PKKATELKHLQCLEEELKPLEEVL[hSer]LAQSKNFHLRPRDLISNINVIVLELKGSETTF[hSer]CEYADETATIVEFLNRWITFSQSIISTLT
modifications: bridge 15-23; not fully specified (bridges); also: further groups not given here
B9: CMP-300, MMP2 cleaved molecule (ligand)
chain: APTSSSTKKTQLQLEHLLLDLQEILNGINNYKNPKLTR[Nle]L[hSer][Yn3(4)]KF[Ygp(4)][Nle]PKKATELKHLQCLEEELKPLEEVL[hSer]LAQSKNFHLRPRDLISNINVIVLELKGSETTF[hSer]CEYADETATIVEFLNRWITFSQSIISTLT
modifications: not fully specified; ends and bridges not checked; also: cleaved by MMP2, product not given here, N-terminus linked to another sequence via PEG4, Glu23 side chain linked to another sequence
B10: CMP-168, MMP2 cleaved molecule (ligand)
chain: APTSSSTKKTQLQLEHLLLDLQEILNGINNYKNPKLTR[Nle]L[hSer][Yn3(4)]KF[Ygp(4)][Nle]PKKATELKHLQCLEEELKPLEEVL[hSer]LAQSKNFHLRPRDLISNINVIVLELKGSETTF[hSer]CEYADETATIVEFLNRWITFSQSIISTLT
modifications: not fully specified; ends and bridges not checked; also: MMP2 cleaved, cleavage site and linker fragments on Lys9 and Glu23 side chains not given here
B11: CMP-303 (ligand)
chain: PLGLAGAPTSSSTKKTQLQLEHLLLDLQEILNGINNYKNPKLTR[Nle]L[hSer][Yn3(4)]KF[Ygp(4)][Nle]PKKATELKHLQCLEEELKPLEEVL[hSer]LAQSKNFHLRPRDLISNINVIVLELKGSETTF[hSer]CEYADETATIVEFLNRWITFSQSIISTLT
modifications: bridge N-29; not fully specified (N-terminus, bridges); ends not checked

What was measured:
IL-2 receptor βγ complex [1] = molecular target: T1, IL-2 receptor βγ complex; assay: cell-based or functional assay
IL-2 receptor βγ complex [2] = molecular target: T1, IL-2 receptor βγ complex; assay: cell-based or functional assay; remark: listed apart in the source
[3] = molecular target: T2, recombinant human IL-2 receptor beta …; assay: BLI (Octet R8), receptor on SAX2 sensor
Procedure: (§1) Bilayer interferometry (BLI) assays were used to measure the binding constants between activatable IL-2 polypeptides (and activated versions thereof) to IL-2 receptor subunits or receptor complexes. BLI assays were conducted on an Octet® R8 instrument. Assay plates were 96 well, polypropylene, F-bottom (chimney well), black microplates (Greiner Bio-one, Cat. No: 655209). The biosensors were Octet® SAX2 (Sartorius, Cat. No: 18-5136). The assay buffer was 1X Kinetic Buffer (Sartorius, Cat. no: 18-5136) or Phosphate Buffered Saline (PBS) that contained 0.02% (v: v) Tween 20 (Polysorbate 20) and 0.1% (w/v) bovine serum albumin (BSA). The sensor was regenerated between measurements in 10 mM glycine pH 2.7 buffer.
(§2) Sensor attached receptors were either recombinant human IL-2 receptor beta containing a His-tag and Avi-tag™ (R&D Systems™) or an Avi-tag™ Fc with human IL-2R beta and IL-2R gamma attached (Acrobiosystems Cat. no: ACRB-ILG-H₈₂F3-25UG). Receptors were reconstituted from lyophilized powder to 500 μg/ml in PBS. Analytes were diluted in Kinetic buffer to 300 nM, then serially diluted to lower concentrations.

[4] = molecular target: T3, Avi-tag Fc with human IL-2R beta and …; assay: BLI (Octet R8), receptor on SAX2 sensor
Procedure: as §1, §2

Average EC50, pSTAT5 Assay (T cells) (IL-2 receptor βγ complex [1])	Average EC50, pSTAT5 Assay in NK cells (IL-2 receptor βγ complex [2])	other results	Binder
110 nM	–	–	B1
144 nM	53.9 nM	–	B2
–	–	Kd [3]: 11.7 nM; koff [3]: 0.0105 s⁻¹; kon [3]: 898000 M⁻¹ s⁻¹; Kd [4]: 12.3 nM; koff [4]: 0.00284 s⁻¹; kon [4]: 232000 M⁻¹ s⁻¹	B3
94.7 nM	38.1 nM	–	B4
–	–	Kd [3]: 8.44 nM; koff [3]: 0.00767 s⁻¹; kon [3]: 909000 M⁻¹ s⁻¹; Kd [4]: 12.6 nM; koff [4]: 0.00498 s⁻¹; kon [4]: 396000 M⁻¹ s⁻¹	B5
3.26 nM	–	–	B6
63.4 nM	–	–	B7
128 nM	–	–	B8
1.73 nM	0.379 nM	–	B9
6.3 nM	0.981 nM	–	B10
97.9 nM	–	–	B11
